In the NTF2 design screens of Basanta et al. (2020):

Assay: protease stability score; higher = more stable; yeast display proteolysis, trypsin and chymotrypsin;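 note: log10 excess protease needed over predicted unfolded state with 0 meaning unfolded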
Work on “DEKHDAKRVWETILNQLRRGDSEEFMKLADKDVKIEYGDKTIHGREDLKSWMNERQKDYDHLDADLTHMDVQGEDVNVTYTDRAKHNGTEHHRTVQAVFRVHNGRLRLQSWYHS” yielded a protease stability score of 0.494.
Work on “DEKHLERQVDHFLDALHRGDEDEAVNLADPDVEFQVGDRTYHGKEQLKEWLKRLVDRVDHVDIKNITVSGDKVEVHADFSVDGRKETMTFTVRAHNGRIKHMTIDKG” yielded a protease stability score of 1.27.
“DEKHVKKVVDRVLDALEKKNKDELVKLVKPDVEFHVADTKFEGTDQLHKYYDKVFRKGVEFHVKEVKVEGNKAQVRYDVRAGGHQETVQFEVTVKDERVDRARAEMTEKYKKLVTKG” showed a protease stability score of 0.086.
With “DEKHYKKVLKRVLDYFMKGNKEQVKKIAKPDVEFHAGKMKIEGTDHLAKYYEKLQRKGVKLEIKEQHVTGDTVEVKYELEVGGTKVTVKATLKVKDDKVDKAEAKNDDDYHKRVKKG” the protease stability score was 0.117.
In the case of “DEKIKQNIEEFLKAVQHGDEERMTQLVDPNAKIVVGNQRVHGMEEYARDIVRKVKEIRIKIDRMHISVQGNKAVITMVYVININGKPVTFRAVYIYEVHDGRVKRVKNNIPEEDQKKVDS”, the protease stability score is reported as 0.733.
“DEKIVQAMKRYMDARQKGDPEDFNNLVDPNVRLNVGDKRVHGRERISEQIQREQRKMRIEIKHVEFRDQGEKVQLRVKYVVEINGRPRHASQRMEASLDDGKIKSIEIRVDEEVKKIEKV” gave a protease stability score of -0.088.
“DEKKAEDAARQMLEALRTGDPKRMVDHMDPNARALVGDTRYHGREEASKMVEHIRRRVDHVRVDNFRVRGNKLHLHAVFDSNGRRERVQIRADVHNGKIKVFEITSQ” gave a protease stability score of 0.342.
“DEKKAEELAKKAFKYIENGDREEAQKMLKDNVEYHYANTTYHGKDAAKFVVDVVQKVGVEVKVQEQEVRGNTVRARFQYKNGDTEVETEVEVTYEGDRVKKAEVKLSEEVMKLVHQG” gave a protease stability score of 0.566.
With “DEKKAEELARTVFEMADKGDKDTLRKIGMPNGEYKYVDKRYEGEQLALILVEQIKKVGAQVKVKRMEVRGDKVQADFDYEYGDKTVRTTARLEYKGDKLLRAEVEVSEEVKKIMTQG” the protease stability score was -0.073.
Sequence “DEKKAEEMLRRVVKLFRNGDVETVRKMGKDDVEVKYLDETRHGPDAMKKMLEKMKKLGAEVEYKEVHVEGDKATVKVEANIDGTTVRFHVTYQVKDHRVENVKVEYSEKAKKAIKHG” has a protease stability score of 0.754.
Sequence “DEKKAEEVATRVLEYIRDGNADDVKKLGKEGGQVQLGDTQLNGVDQLYKYVQDFHKQGIHVEYKEHEAKGDTVTFHTTARRGDAQIEFEVHYVVKGDVVERMEVRQDRKQVKEFKDS” has a protease stability score of -0.084.
With “DEKKAKEAAHRLLEAMVTGDPRKLNENADEDVQVEYGDKSYTGREKLNEWAHEFQKRVDHVRIESIHQRGDTATVKVRVEHNGETDTFVLIVEAHNGRAKRIRQETR” the protease stability score was 1.11.
“DEKKAKELAETMFKYIQNGDEEKAQKYVDDNVEYKYIDKEYEGKDVVKEVVDKIKKLGVEVKLKRAEVKGDRVTADFEYKHGDNTVRTTVEVQYEGDRVKKARVELTDEARKVIDKG” showed a protease stability score of 0.352.
With “DEKKALEIAEKVARYVAEGNSDKAKELGKEGVEAKVGDTTVHGPDQLKEYVKKVKDQGNRYEYKETHKEGNTVQFKTEVEKGNAKVEFTAEYQVEGDKLVRAEVRFNKEQQKKFQKS” the protease stability score was -0.214.
In the case of “DEKKALEVIDRALKYVKNGNKEQVQQMGAPDVEVQNGDARNKGVEEMKKFAERVKKAGNQFEYKEKTTKGNKVKTVVQVTVNGQTIEYEVEVVAEGGKVKHWVVKMDETFKKVVDKS”, the protease stability score is reported as 0.008.
Sequence “DEKKALTLAKKAFEVIKKGDKEKAKKLGKPDVKYEYLDKKYTGPEAMEHIVEYVQKLGMEVRVKRNEEKGGTVRVDFDYQRGDQQVRTTAEVEYEGDKLKRFRVEMSEEVKKHITQG” has a protease stability score of 0.093.
With “DEKKAQKLMKKAFKMIKDGNEDEVRKLGKPNVKYEYADQQYEGEDAVRVAVQIVKRVGAEDKTETQEVKGDTARAVFVYKKGDTEVQTTAEVIYKGDKMEEARVKLSDEVKKVVHQG” the protease stability score was 0.124.
In the case of “DEKKATKVAKQIQDMMVKGDSDKVEKVGKPNVEFQVGDVKMKGPDELKKYYKKVKDVGNELHVKEAKVEGDTVEVHYDLRHGGTQATVTVRIELKDDKVDRAKVDVDEHYKKIVKKG”, the protease stability score is reported as -0.068.
Work on “DEKKDREAAQKAARAFVKGNKDKVKELGKEDVTAKFGDEEFRGVDQVTKAMEHWLKMGDQMQLREEKDEKNHVKVRTDQRVGGYEVTTEATYHAQGGRVDHAEDREPPEAQKLMQKG” yielded a protease stability score of -0.258.
For “DEKKEEQWVRDVKKHAETGNWHDFWRQADPNVRFQVGDTTLRGREEAVKVAEDMRRQVDHQRVEHVDAHNGKVTVDAVLDINGRQQKVEYVVEMHNGRIKRINFSYS”, the protease stability score was -0.142.
